Assay results from publication PMC10850148.
Numbering of substitutions follows the chain as printed. Names may count otherwise.

T1: OY-M SAP05 (residues 33-135)
T1 chain: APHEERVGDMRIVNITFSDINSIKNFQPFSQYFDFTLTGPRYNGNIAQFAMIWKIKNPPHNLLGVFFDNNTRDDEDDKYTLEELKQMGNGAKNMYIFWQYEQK

B1: AtSPL5 ZnF domain (residues 60-124), Q9S758 S108A (protein)
chain: SRLCQVDRCTVNLTEAKQYYRRHRVCEVHAKASAATVAGVRQRFCQQCARFHELPEFDEAKRSCR
B2: AtGATA18 ZnF domain, Q8LC79 R182A (protein)
chain: GDSLLARRCANCDTTSTPLWRNGPRGPKSLCNACGIAFKKEERRTTAATGNT
B3: AtGATA18 ZnF domain, Q8LC79 K185A (protein)
chain: B2 chain with A37R, K40A
B4: AtGATA18 ZnF domain, Q8LC79 I181A (protein)
chain: B2 chain with I36A, A37R
B5: AtGATA18 ZnF domain, Q8LC79 R188A (protein)
chain: B2 chain with A37R, R43A

How the values were obtained:
AtGATA18 ZnF domain = AtGATA18 ZnF domain (UniProt Q8LC79); assay: ITC
[1] = biological target: AtSPL5 ZnF domain (residues 60-124) (UniProt Q9S758); assay: ITC
[2] = biological target: AtSPL5 ZnF domain (residues 60-124) (Arabidopsis thaliana) (UniProt Q9S758); assay: ITC
[3] = biological target: MqGATA triple mutant (Y-R, M-K, N-R) (Macrosteles quadrilineatus); assay: ITC
[4] = biological target: AtGATA18 ZnF domain (Arabidopsis thaliana) (UniProt Q8LC79); assay: ITC
[5] = biological target: AtSPL5 ZnF domain (residues 60-124) (Arabidopsis thaliana) (UniProt Q9S758); assay: ITC; MicroCal PEAQ-ITC, 16 °C, 20 mM Tris-HCl pH 7.5, 150 mM NaCl; 660-700 μM protein injected into 40-50 μM protein in the cell; SAP05 titrated to the transcription factor; one-site model
[6] = biological target: AtGATA18 ZnF domain (Arabidopsis thaliana) (UniProt Q8LC79); assay: as above
[7] = biological target: T1, OY-M SAP05 (residues 33-135); assay: ITC; conditions: chain shown with the change

Molecule	Kd (AtGATA18 ZnF domain)	Kd [7]	also measured
OY-M SAP05 (residues 33-135) E107A	1300 nM	–	Kd [1]: 6300 nM
OY-M SAP05 (residues 33-135) (domain or fragment)	–	–	Kd [2]: 420 nM; Kd [3]: 900 nM; Kd [4]: 140 nM
binary complex AtRPN10-SAP05 (from UniProt P55034 33-135; P55034 1-193)	–	–	Kd [2]: 370 nM; Kd [4]: 100 nM
OY-M SAP05 E107A (domain or fragment)	–	–	fold decrease of binding affinity against wild-type SAP05 [5]: 15 fold
WBDLa SAP05 double mutant M86I-K70T (natural protein)	–	–	Kd [5]: 2600 nM; Kd [6]: 2700 nM
OY-M SAP05 (residues 33-135) D106A	4000 nM	–	–
OY-M SAP05 (residues 33-135) I84A	> 100000 nM	–	–
OY-M SAP05 (residues 33-135) D108A	5400 nM	–	–
B1	–	1400 nM	–
B2	–	4400 nM	–
B3	–	580 nM	–
B4	–	5000 nM	–
B5	–	500 nM	–
